Data reported in the supplement of paper PMC7125110.
± gives the standard error. Variants at the floor of the assay were thinned out.

B1: glmS ribozyme (parent)
chain: AUAAAAGCGCCAGAACUACAGAAAUGUAGUUGACGAGGAGGAGGUUUAUCGAAUUUUCGGCGGAUGCCUCCAAA

Experiments:
Conditions in all cases: with glucosamine-6-phosphate
glucosamine-6-phosphate [1] = variants of: B1; experiment: self-cleavage kobs at 40 uM GlcN6P; higher = faster cleavage; RNA array
Summary of the method: (§1)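 Tracking of barcoded ribozyme variants used a hybridised Cy3 probe at 37 °C, after in situ transcription by E. coli RNA polymerase on sequenced MiSeq chips. The flowed solution held 40 μM to 10 mM glucosamine-6-phosphate in HEPES/KCl/Mg(OAc)2 buffer, and imaging ran over ~14 h. kobs was taken from exponential decay fits of normalised per-tile medians, and kcat and KM from weighted Michaelis–Menten fits.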

glucosamine-6-phosphate [2] = variants of: B1; experiment: self-cleavage kobs at 10000 uM GlcN6P; higher = faster cleavage; RNA array
Summary of the method: as §1

glucosamine-6-phosphate [3] = variants of: B1; experiment: self-cleavage kobs at 160 uM GlcN6P; higher = faster cleavage; RNA array
Summary of the method: as §1

glucosamine-6-phosphate [4] = variants of: B1; experiment: self-cleavage kobs at 640 uM GlcN6P; higher = faster cleavage; RNA array
Summary of the method: as §1

glucosamine-6-phosphate [5] = variants of: B1; experiment: self-cleavage kobs at 2500 uM GlcN6P; higher = faster cleavage; RNA array
Summary of the method: as §1

Variant | self-cleavage kobs at 40 uM GlcN6P (glucosamine-6-phosphate [1]) | self-cleavage kobs at 10000 uM GlcN6P (glucosamine-6-phosphate [2]) | self-cleavage kobs at 160 uM GlcN6P (glucosamine-6-phosphate [3]) | self-cleavage kobs at 640 uM GlcN6P (glucosamine-6-phosphate [4]) | self-cleavage kobs at 2500 uM GlcN6P (glucosamine-6-phosphate [5])
C16U G32U A48C G59C | < 1e-05 s⁻¹ | < 1e-05 s⁻¹ | – | – | –
A42C G66C | < 1e-05 s⁻¹ | < 1e-05 s⁻¹ | < 1e-05 s⁻¹ | < 1e-05 s⁻¹ | < 1e-05 s⁻¹
A15U U55G C61U | < 1e-05 s⁻¹ | < 1e-05 s⁻¹ | – | – | –
G9U U56G C71A | < 1e-05 s⁻¹ | – | – | – | –
U55G U65A C67A | 6.53e-05 ± 1.8e-05 s⁻¹ | 9.95e-05 ± 3e-05 s⁻¹ | – | – | –
C10G U46G | < 1e-05 s⁻¹ | – | < 1e-05 s⁻¹ | < 1e-05 s⁻¹ | < 1e-05 s⁻¹
C8U A64C | < 1e-05 s⁻¹ | – | < 1e-05 s⁻¹ | < 1e-05 s⁻¹ | < 1e-05 s⁻¹
A6C A36G A52G | < 1e-05 s⁻¹ | < 1e-05 s⁻¹ | – | – | < 1e-05 s⁻¹
A15G G37A A39C C61U U69G | < 1e-05 s⁻¹ | – | – | – | –
C11U G43C | < 1e-05 s⁻¹ | – | < 1e-05 s⁻¹ | < 1e-05 s⁻¹ | < 1e-05 s⁻¹
C8U G9A C50G C67U | 6.37e-05 ± 1.7e-05 s⁻¹ | 6.88e-05 ± 1.6e-05 s⁻¹ | – | – | 0.000169 ± 4.6e-05 s⁻¹
G7U U56A | < 1e-05 s⁻¹ | < 1e-05 s⁻¹ | < 1e-05 s⁻¹ | < 1e-05 s⁻¹ | –
G7A C8G G9C C10G A12C G13A A14G C16A U17C U31A | 0.000115 ± 4.2e-05 s⁻¹ | 0.00555 ± 0.0017 s⁻¹ | – | – | –
C34A A36G | < 1e-05 s⁻¹ | < 1e-05 s⁻¹ | < 1e-05 s⁻¹ | < 1e-05 s⁻¹ | < 1e-05 s⁻¹
G41A G62A | < 1e-05 s⁻¹ | < 1e-05 s⁻¹ | < 1e-05 s⁻¹ | < 1e-05 s⁻¹ | –
U30C G35U G41A U47A U57A C61G G63C C70A | < 1e-05 s⁻¹ | < 1e-05 s⁻¹ | – | – | –
G7C U54A | < 1e-05 s⁻¹ | < 1e-05 s⁻¹ | – | < 1e-05 s⁻¹ | –
G7U A33G U55A | < 1e-05 s⁻¹ | < 1e-05 s⁻¹ | – | – | –
A6G U30C | < 1e-05 s⁻¹ | – | < 1e-05 s⁻¹ | – | –
G38U G43C U47C A53U U55A G59C | < 1e-05 s⁻¹ | – | – | – | –
C11A A33G G43U G44A U54C | < 1e-05 s⁻¹ | < 1e-05 s⁻¹ | – | < 1e-05 s⁻¹ | –
C61U G63A | < 1e-05 s⁻¹ | < 1e-05 s⁻¹ | < 1e-05 s⁻¹ | < 1e-05 s⁻¹ | –
G32A U47G U57G | < 1e-05 s⁻¹ | – | – | – | –
G29U U31C C50G | 6.96e-05 ± 3.2e-05 s⁻¹ | 5.39e-05 ± 2.3e-05 s⁻¹ | – | – | –
